Values quoted from earlier work in paper PMC7739374.

Biological target: Sos (Homo sapiens) (UniProt Q07889)

In the case of Ras (from UniProt P01112), the Kd is given as 28 µM.
